96 substances from the Human Domainome abundance scans (Beltran et al. 2025) can be followed below.

± gives the uncertainty stated by the source.

The series is described as follows: abundance fitness (aPCA) (normalised: wild type 0, dead -1); higher = more abundant; growth selection in yeast, the domain comes from the species named. To be noted: Homo sapiens.
In turn, “Scaffold attachment factor B1 P72C, Q15424” showed an abundance fitness of -0.103 ± 0.061.

As for “Scaffold attachment factor B1 P72D, Q15424”, the abundance fitness is -0.407 ± 0.1. In turn, “Scaffold attachment factor B1 P72E, Q15424” displayed an abundance fitness of -0.302 ± 0.068. Regarding “Scaffold attachment factor B1 P72F, Q15424”, the abundance fitness was -0.185 ± 0.098.

Substance “Scaffold attachment factor B1 P72G, Q15424” came in with an abundance fitness of -0.11 ± 0.048. The substance “Scaffold attachment factor B1 P72H, Q15424” gave an abundance fitness of -0.149 ± 0.073.

“Scaffold attachment factor B1 P72I, Q15424” yielded an abundance fitness of -0.382 ± 0.11.

“Scaffold attachment factor B1 P72K, Q15424” gave an abundance fitness of -0.423 ± 0.091. With “Scaffold attachment factor B1 P72L, Q15424”, the abundance fitness was -0.14 ± 0.048. Substance “Scaffold attachment factor B1 P72M, Q15424” registered an abundance fitness of -0.362 ± 0.08. Under “Scaffold attachment factor B1 P72N, Q15424” stands -0.374 ± 0.11; under “Scaffold attachment factor B1 P72Q, Q15424”, -0.432 ± 0.098; under “Scaffold attachment factor B1 P72R, Q15424”, -0.23 ± 0.052. In turn, “Scaffold attachment factor B1 P72S, Q15424” gave an abundance fitness of -0.197 ± 0.058. Under “Scaffold attachment factor B1 P72T, Q15424” stands -0.329 ± 0.085; under “Scaffold attachment factor B1 P72V, Q15424”, -0.116 ± 0.053; under “Scaffold attachment factor B1 P72W, Q15424”, -0.296 ± 0.068. The substance “Scaffold attachment factor B1 P72Y, Q15424” showed an abundance fitness of -0.176 ± 0.06. For the substance “Scaffold attachment factor B1 R29A, Q15424”, the abundance fitness is -0.465 ± 0.072.

“Scaffold attachment factor B1 R29C, Q15424” displayed an abundance fitness of -0.107 ± 0.073. In turn, “Scaffold attachment factor B1 R29D, Q15424” had an abundance fitness of -0.37 ± 0.091. “Scaffold attachment factor B1 R29E, Q15424” gave an abundance fitness of -0.143 ± 0.068. Under “Scaffold attachment factor B1 R29F, Q15424” stands -0.03 ± 0.06.

Substance “Scaffold attachment factor B1 R29G, Q15424” had an abundance fitness of -0.18 ± 0.049.

Substance “Scaffold attachment factor B1 R29H, Q15424” gave an abundance fitness of -0.262 ± 0.088. For “Scaffold attachment factor B1 R29I, Q15424”, the abundance fitness is -0.019 ± 0.062. Turning to “Scaffold attachment factor B1 R29K, Q15424”, the abundance fitness is -0.086 ± 0.083. In turn, “Scaffold attachment factor B1 R29L, Q15424” came in with an abundance fitness of -0.134 ± 0.048. In turn, “Scaffold attachment factor B1 R29M, Q15424” yielded an abundance fitness of 0.03 ± 0.077.

For “Scaffold attachment factor B1 R29N, Q15424”, the abundance fitness is -0.408 ± 0.1. Under “Scaffold attachment factor B1 R29P, Q15424” stands -0.364 ± 0.063; under “Scaffold attachment factor B1 R29Q, Q15424”, -0.222 ± 0.089.

“Scaffold attachment factor B1 R29S, Q15424” registered an abundance fitness of -0.189 ± 0.063. As to “Scaffold attachment factor B1 R29T, Q15424”, the abundance fitness was -0.141 ± 0.062.

In turn, “Scaffold attachment factor B1 R29V, Q15424” registered an abundance fitness of -0.08 ± 0.059. In turn, “Scaffold attachment factor B1 R29Y, Q15424” displayed an abundance fitness of -0.056 ± 0.076.

In the case of “Scaffold attachment factor B1 R30A, Q15424”, the abundance fitness is -0.289 ± 0.066. Under “Scaffold attachment factor B1 R30C, Q15424” stands -0.409 ± 0.1; under “Scaffold attachment factor B1 R30D, Q15424”, -0.384 ± 0.092. Under “Scaffold attachment factor B1 R30E, Q15424” stands -0.252 ± 0.06; under “Scaffold attachment factor B1 R30G, Q15424”, -0.31 ± 0.061; under “Scaffold attachment factor B1 R30H, Q15424”, -0.16 ± 0.063. As to “Scaffold attachment factor B1 R30I, Q15424”, the abundance fitness was -0.33 ± 0.073. Under “Scaffold attachment factor B1 R30K, Q15424” stands -0.037 ± 0.066; under “Scaffold attachment factor B1 R30L, Q15424”, -0.218 ± 0.051; under “Scaffold attachment factor B1 R30M, Q15424”, -0.206 ± 0.077. Under “Scaffold attachment factor B1 R30N, Q15424” stands -0.411 ± 0.1; under “Scaffold attachment factor B1 R30P, Q15424”, -0.545 ± 0.094. As to “Scaffold attachment factor B1 R30Q, Q15424”, the abundance fitness is -0.25 ± 0.082. Under “Scaffold attachment factor B1 R30S, Q15424” stands -0.133 ± 0.062; under “Scaffold attachment factor B1 R30V, Q15424”, -0.493 ± 0.052. The substance “Scaffold attachment factor B1 R30W, Q15424” yielded an abundance fitness of -0.444 ± 0.053. In turn, “Scaffold attachment factor B1 R30Y, Q15424” came in with an abundance fitness of -0.383 ± 0.086. Take “Scaffold attachment factor B1 R35A, Q15424”: the abundance fitness was -0.112 ± 0.059.

For “Scaffold attachment factor B1 R35C, Q15424”, the abundance fitness was -0.4 ± 0.073.

For “Scaffold attachment factor B1 R35D, Q15424”, the abundance fitness is -0.12 ± 0.08. Turning to “Scaffold attachment factor B1 R35E, Q15424”, the abundance fitness is -0.195 ± 0.083. Turning to “Scaffold attachment factor B1 R35F, Q15424”, the abundance fitness was -0.59 ± 0.082. In turn, “Scaffold attachment factor B1 R35H, Q15424” gave an abundance fitness of -0.475 ± 0.089. The substance “Scaffold attachment factor B1 R35I, Q15424” registered an abundance fitness of -0.556 ± 0.08.

In turn, “Scaffold attachment factor B1 R35K, Q15424” had an abundance fitness of -0.217 ± 0.083. Take “Scaffold attachment factor B1 R35L, Q15424”: the abundance fitness was -0.316 ± 0.063. As for “Scaffold attachment factor B1 R35M, Q15424”, the abundance fitness is -0.147 ± 0.072. In turn, “Scaffold attachment factor B1 R35P, Q15424” showed an abundance fitness of -0.288 ± 0.081. For “Scaffold attachment factor B1 R35Q, Q15424”, the abundance fitness was -0.136 ± 0.077. Turning to “Scaffold attachment factor B1 R35S, Q15424”, the abundance fitness is -0.136 ± 0.068. Turning to “Scaffold attachment factor B1 R35T, Q15424”, the abundance fitness was found to be 0.014 ± 0.064. Substance “Scaffold attachment factor B1 R35V, Q15424” registered an abundance fitness of -0.28 ± 0.054. In turn, “Scaffold attachment factor B1 R35W, Q15424” displayed an abundance fitness of -0.645 ± 0.079.

Consider “Scaffold attachment factor B1 R40A, Q15424”, for which the abundance fitness was -0.272 ± 0.065.

For “Scaffold attachment factor B1 R40C, Q15424”, the abundance fitness was -0.642 ± 0.085. “Scaffold attachment factor B1 R40D, Q15424”: the abundance fitness was -0.642 ± 0.096. “Scaffold attachment factor B1 R40F, Q15424”: the abundance fitness was -0.822 ± 0.08. On to “Scaffold attachment factor B1 R40G, Q15424”, for which the abundance fitness was -0.732 ± 0.056.

With “Scaffold attachment factor B1 R40I, Q15424”, the abundance fitness was -0.179 ± 0.07. “Scaffold attachment factor B1 R40K, Q15424” registered an abundance fitness of -0.416 ± 0.079.

For “Scaffold attachment factor B1 R40L, Q15424”, the abundance fitness was -0.219 ± 0.055. Take “Scaffold attachment factor B1 R40M, Q15424”: the abundance fitness was -0.329 ± 0.075.

With “Scaffold attachment factor B1 R40N, Q15424”, the abundance fitness is -0.786 ± 0.12.

In the case of “Scaffold attachment factor B1 R40P, Q15424”, the abundance fitness was -0.763 ± 0.074.

Take “Scaffold attachment factor B1 R40Q, Q15424”: the abundance fitness is -0.152 ± 0.06. As to “Scaffold attachment factor B1 R40S, Q15424”, the abundance fitness is -0.353 ± 0.062.

Substance “Scaffold attachment factor B1 R40T, Q15424” had an abundance fitness of -0.319 ± 0.073. For “Scaffold attachment factor B1 R40V, Q15424”, the abundance fitness is -0.123 ± 0.067.

In turn, “Scaffold attachment factor B1 R40Y, Q15424” came in with an abundance fitness of -0.549 ± 0.077. The substance “Scaffold attachment factor B1 R44A, Q15424” yielded an abundance fitness of -0.029 ± 0.061.

Substance “Scaffold attachment factor B1 R44D, Q15424” registered an abundance fitness of -0.156 ± 0.1. As to “Scaffold attachment factor B1 R44E, Q15424”, the abundance fitness was -0.121 ± 0.091. In turn, “Scaffold attachment factor B1 R44F, Q15424” returned an abundance fitness of -0.27 ± 0.081. Take “Scaffold attachment factor B1 R44G, Q15424”: the abundance fitness was -0.096 ± 0.064.

As for “Scaffold attachment factor B1 R44H, Q15424”, the abundance fitness was -0.202 ± 0.072. As to “Scaffold attachment factor B1 R44I, Q15424”, the abundance fitness is -0.13 ± 0.071. Substance “Scaffold attachment factor B1 R44L, Q15424” had an abundance fitness of -0.107 ± 0.053. Under “Scaffold attachment factor B1 R44P, Q15424” stands -0.715 ± 0.075. In turn, “Scaffold attachment factor B1 R44Q, Q15424” yielded an abundance fitness of -0.074 ± 0.071.

On to “Scaffold attachment factor B1 R44S, Q15424”, for which the abundance fitness was -0.096 ± 0.065.
